Our source for the self-cleavage values is the RNAGym collection of RNA variant scans (doi:10.7554/elife.80360).

The labels stand for the following.
B1: Hairpin Ribozyme (parent)
chain: GUCCUCUUUCACGUGCGCGUGAAAGAGAGAAGUGAACCAGAGAAACACACGUUGUGGUAUAUUACCUGGUA

The data set covers variants of B1. The data set can be described thus: self-cleavage, relative activity (ratio to wild type); higher = more cleavage; co-transcriptional.
Consider GUCCUCUUUCACGUGCGCGUGAAAGAGAGAAGUGAACCAGAGAAAGACACGUUGUGGUAUUUUACCUGGUA [C46G A61U], for which the self-cleavage came to 0.157. GUCCUCUUUCACGUGCGCGUGAAAGAGAGAAGUGAACCAGAGAAGCACACGUUCUGGUAUAUUACCUGGUA [A45G G54C]: the self-cleavage was found to be 0.0826. The result for GUCCUCUUUCACGUGCGCGUGAAAGAGAGAAGUGAACCAGAGAAUCACACGUUGUGGUAUAUUACAUGGUA [A45U C66A] reads 0.204. As for GUCCUCUUUCACGUGCGCGUGAAAGAGAGAAGUGAACCAGAGAAUCACACGUUGUGGUAUAUUACUUGGUA [A45U C66U], the figure is 0.117; as for GUCCUCUUUCACGUGCGCGUGAAAGAGAGAAGUGAACCAGAGAAUCACACGUUGUGGCAUAUUACCUGGUA [A45U U58C], 0.0664; as for GUCCUCUUUCACGUGCGCGUGAAAGAGAGAAGUGAACCAGAGAAGCACACGUUGAGGUAUAUUACCUGGUA [A45G U55A], 0.121. As for GUCCUCUUUCACGUGCGCGUGAAAGAGAGAAGUGAACCAGAGAAGCACACGUAGUGGUAUAUUACCUGGUA [A45G U53A], the figure is 0.234; as for GUCCUCUUUCACGUGCGCGUGAAAGAGAGAAGUGAACCAGAGAAUCACACGUUCUGGUAUAUUACCUGGUA [A45U G54C], 0.23; as for GUCCUCUUUCACGUGCGCGUGAAAGAGAGAAGUGAACCAGAGAAUCACACGUUAUGGUAUAUUACCUGGUA [A45U G54A], 0.138. Consider GUCCUCUUUCACGUGCGCGUGAAAGAGAGAAGUGAACCAGAGAAUCACACGUUUUGGUAUAUUACCUGGUA [A45U G54U], for which the self-cleavage worked out at 0.0699.

With GUCCUCUUUCACGUGCGCGUGAAAGAGAGAAGUGAACCAGAGAAGCACACGUUGUGGUAUACUACCUGGUA [A45G U62C], the self-cleavage came to 0.0923. The result for GUCCUCUUUCACGUGCGCGUGAAAGAGAGAAGUGAACCAGAGAAAAACACGUUGUGUUAUAUUACCUGGUA [C46A G57U] reads 0.123; that for GUCCUCUUUCACGUGCGCGUGAAAGAGAGAAGUGAACCAGAGAAGCACACGUUGUGAUAUAUUACCUGGUA [A45G G57A], 0.0893. With GUCCUCUUUCACGUGCGCGUGAAAGAGAGAAGUGAACCAGAGAAGCACACGUUGUCGUAUAUUACCUGGUA [A45G G56C], the self-cleavage is 0.0912. As for GUCCUCUUUCACGUGCGCGUGAAAGAGAGAAGUGAACCAGAGAAGCACACGUUGUGGUAGAUUACCUGGUA [A45G U60G], the figure is 0.187; as for GUCCUCUUUCACGUGCGCGUGAAAGAGAGAAGUGAACCAGAGAAGCACACGUUGUGGUACAUUACCUGGUA [A45G U60C], 0.0993. As for GUCCUCUUUCACGUGCGCGUGAAAGAGAGAAGUGAACCAGAGAAUCACAGGUUGUGGUAUAUUACCUGGUA [A45U C50G], the figure is 0.146; as for GUCCUCUUUCACGUGCGCGUGAAAGAGAGAAGUGAACCAGAGAAAGACACGUUGUGGUAUAUUACCUGGUG [C46G A71G], 0.166. As for GUCCUCUUUCACGUGCGCGUGAAAGAGAGAAGUGAACCAGAGAAAAACACAUUGUGGUAUAUUACCUGGUA [C46A G51A], the figure is 0.215; as for GUCCUCUUUCACGUGCGCGUGAAAGAGAGAAGUGAACCAGAGAAAAACACUUUGUGGUAUAUUACCUGGUA [C46A G51U], 0.146; as for GUCCUCUUUCACGUGCGCGUGAAAGAGAGAAGUGAACCAGAGAAAAACACGUUGUGGUCUAUUACCUGGUA [C46A A59C], 0.3.

On to GUCCUCUUUCACGUGCGCGUGAAAGAGAGAAGUGAACCAGAGAAAAACACGUUGUGGUUUAUUACCUGGUA [C46A A59U], for which the self-cleavage worked out at 0.109. As to GUCCUCUUUCACGUGCGCGUGAAAGAGAGAAGUGAACCAGAGAAAGACACGUUGUGGUUUAUUACCUGGUA [C46G A59U], the self-cleavage stood at 0.13. As for GUCCUCUUUCACGUGCGCGUGAAAGAGAGAAGUGAACCAGAGAAAGGCACGUUGUGGUAUAUUACCUGGUA [C46G A47G], the figure is 0.136; as for GUCCUCUUUCACGUGCGCGUGAAAGAGAGAAGUGAACCAGAGAAAGCCACGUUGUGGUAUAUUACCUGGUA [C46G A47C], 0.125. As for GUCCUCUUUCACGUGCGCGUGAAAGAGAGAAGUGAACCAGAGAAAAACACGUUGUGGUAUUUUACCUGGUA [C46A A61U], the figure is 0.171; as for GUCCUCUUUCACGUGCGCGUGAAAGAGAGAAGUGAACCAGAGAAUCACACGUUGUGGUAUGUUACCUGGUA [A45U A61G], 0.184; as for GUCCUCUUUCACGUGCGCGUGAAAGAGAGAAGUGAACCAGAGAAGCACACGUUGUGGUAUAUUACCUUGUA [A45G G68U], 0.223.

On to GUCCUCUUUCACGUGCGCGUGAAAGAGAGAAGUGAACCAGAGAAGCACACGUUGUGGUAUAUUACCUAGUA [A45G G68A], for which the self-cleavage was determined as 0.122. As to GUCCUCUUUCACGUGCGCGUGAAAGAGAGAAGUGAACCAGAGAAUCACACGUUGUGGUAUAAUACCUGGUA [A45U U62A], the self-cleavage is 0.149. As for GUCCUCUUUCACGUGCGCGUGAAAGAGAGAAGUGAACCAGAGAAUCACACGUUGUGGUAUAGUACCUGGUA [A45U U62G], the figure is 0.178. The result for GUCCUCUUUCACGUGCGCGUGAAAGAGAGAAGUGAACCAGAGAAUCACACCUUGUGGUAUAUUACCUGGUA [A45U G51C] reads 0.0528. As for GUCCUCUUUCACGUGCGCGUGAAAGAGAGAAGUGAACCAGAGAAUCACACGUUGUGGUAUAUUACCUGGAA [A45U U70A], the figure is 0.0397; as for GUCCUCUUUCACGUGCGCGUGAAAGAGAGAAGUGAACCAGAGAAUCACACGUUGUGGUAUAUUACCUGGGA [A45U U70G], 0.24.

GUCCUCUUUCACGUGCGCGUGAAAGAGAGAAGUGAACCAGAGAAUCACACGUUGUGGUAUAUUACCUGGCA [A45U U70C]: the self-cleavage was 0.056. The result for GUCCUCUUUCACGUGCGCGUGAAAGAGAGAAGUGAACCAGAGAAUCACACGUUGUGGUAUAUUAGCUGGUA [A45U C65G] reads 0.155; that for GUCCUCUUUCACGUGCGCGUGAAAGAGAGAAGUGAACCAGAGAAAAACACGUUGUGGAAUAUUACCUGGUA [C46A U58A], 0.198; that for GUCCUCUUUCACGUGCGCGUGAAAGAGAGAAGUGAACCAGAGAAAAACACGUUGUGGGAUAUUACCUGGUA [C46A U58G], 0.158.
